The record followed here is patent US20260201043A1 (INSTITUT NATIONAL DE LA RECHERCHE SCIENTIFIQUE, published 2026).

Test [1] has as its target T1, recombinant human galectin-13 (human, UniProt Q9UHV8 1-139, biotinylated for the phage ELISA; labeled with FITC for the HepG2 cell binding assay).
T1 sequence (looked up): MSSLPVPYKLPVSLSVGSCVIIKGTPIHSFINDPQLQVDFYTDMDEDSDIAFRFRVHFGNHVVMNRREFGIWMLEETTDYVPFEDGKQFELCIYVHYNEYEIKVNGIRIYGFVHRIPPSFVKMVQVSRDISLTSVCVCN
As to the kind of experiment: cell-based or functional assay.

Test [2] deals with T1, recombinant human galectin-13. Description: non-adsorbed phage ELISA on biotinylated GAL-13. (In general: In an ELISA, binding on a coated surface is turned into a signal by an enzyme label.)
In test [3] the target is T2, recombinant C-terminal domain of human GAL-9 (human, UniProt O00182 210-355).
T2 construct: also called GAL-9C; GAL-9C (210-355)
Description: ELISA: sdAb immobilized at 1 µM, 5 µM GAL-9C. The method, then:
(§1) FIGS. 19A-B show the binding of recombinant N-terminal domain of human GAL-9 (GAL-9N, FIG. 19A) and recombinant C-terminal domain of human GAL-9 (GAL-9C, FIG. 19B) to GAL-9-specific sdAbs as measured by ELISA. Briefly, sdAbs were immobilized at 1 μM for 1 h at RT, followed by blocking with PBS containing 10% (v/v) BSA and 0.05% (v/v) Tween™ 20. 5 μM of recombinant GAL-9N or GAL-9C were incubated for 1 h at RT. […] The colorimetric assay was carried out with 3,3′,5,5′-tetramethylbenzidine per the manufacturer's recommendations. Data (mean values±SD) from three independent experiments is shown. Statistical differences were assessed using Tukey's multiple comparisons test. RT=room temperature.

Test [4] deals with T3, recombinant N-terminal domain of human GAL-9 (human, UniProt O00182 1-148).
T3 construct: also called GAL-9N; Gal-9N
As to the kind of experiment: ELISA: sdAb immobilized at 1 µM, 5 µM GAL-9N. The method, then: as §1

Test [5] deals with T1, recombinant human galectin-13. Description: ELISA: sdAb immobilized at 1 µM, 5 µM galectin. The method, then: Briefly, Nbs were immobilized at 1 μM for 1 h at RT, followed by blocking with PBS containing 10% (v/v) BSA and 0.05% (v/v) Tween™ 20. 5 μM of galectin were incubated for 1 h at RT. […] The colorimetric assay was carried out with 3,3′,5,5′-tetramethylbenzidine per the manufacturer's recommendations. Data (mean values±SD) from one experiment is shown. Statistical differences were assessed using Dunnett's multiple comparisons test. RT=room temperature

T3 sequence (O00182 1-148 limits assumed): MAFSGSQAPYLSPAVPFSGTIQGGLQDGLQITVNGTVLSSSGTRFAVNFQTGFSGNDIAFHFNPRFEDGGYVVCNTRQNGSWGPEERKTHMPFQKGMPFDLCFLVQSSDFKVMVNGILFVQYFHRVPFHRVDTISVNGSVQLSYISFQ
T2 sequence (O00182 210-355 limits assumed): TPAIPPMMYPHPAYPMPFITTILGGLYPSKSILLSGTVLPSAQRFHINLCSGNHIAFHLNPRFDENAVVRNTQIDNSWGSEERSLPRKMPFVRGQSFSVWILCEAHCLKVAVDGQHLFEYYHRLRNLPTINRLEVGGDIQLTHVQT

B1: G13N1 (VHH, not shown: small tags and cut ends)
VHH: EVQLQASGGGFVQPGGSLRLSCAASGFGSNRSTMGWFRQAPGKEREFVSAISSLSSDPPYYADSVKGRFTISRDNSKNTVYLQMNSLRAEDTATYYCAPAGMRGVMEYWGQGTQVTVSS
For the molecule B1, the “inhibition of galectin-13-induced apoptosis of Jurkat T cells” value (shortened to “inhibition”) in test [1] is -27%.

B2: G13N9 (VHH, not shown: small tags and cut ends)
VHH: EVQLQASGGGFVQPGGSLRLSCAASGRGSALTTMGWFRQAPGKEREFVSAISGDTGLYVYYADSVKGRFTISRDNSKNTVYLQMNSLRAEDTATYYCAGKWLGGRQADTRYWGQGTQVTVSS
On to B2, for which the “inhibition” value in test [1] was -33%.

B3: G13N8 (VHH)
VHH: EVQLQASGGGFVQPGGSLRLSCAASGTTWQETKMGWFRQAPGKEREFVSAISRGPNYYPYYADSVKGRFTISRDNSKNTVYLQMNSLRAEDTATYYCADEWMGSINARGHSGYYWGQGTQVTVSS
notes: Synthetic humanized sdAb; on M13 phage in the screening ELISA, purified with His and cMyc tags otherwise; also called GAL-13 sdAb G13N8; not shown: 6xHis and cMyc tags from vector pHEN2
B3: the binding result in test [2] is “binds”.

B4: G9N3 (VHH)
VHH: EVQLQASGGGFVQPGGSLRLSCAASGDGSGWDIMGWFRQAPGKEREFVSAISRHDTTYSYYADSVKGRFTISRDNSKNTVYLQMNSLRAEDTATYYCATIPASWNKSYWGQGTQVTVSS
notes: Synthetic humanized sdAb; on M13 phage in the screening ELISA, purified with His and cMyc tags and immobilized in wells otherwise; also called GAL-9-specific sdAb G9N3; not shown: 6xHis and cMyc tags from vector pHEN2
Take B4: the binding result in test [3], in test [4] and in test [5] was “binds” each time.

B5: G13N3 (VHH, not shown: small tags and cut ends)
VHH: EVQLQASGGGFVQPGGSLRLSCAASGRGSRWYGMGWFRQAPGKEREFVSAISAQHSTRAYYADSVKGRFTISRDNSKNTVYLQMNSLRAEDTATYYCAGYMSKMGERKWKYWGQGTQVTVSS
As for B5, the “inhibition” value in test [1] is -23.5%.

B6: G13N4 (VHH, not shown: small tags and cut ends)
VHH: EVQLQASGGGFVQPGGSLRLSCAASGSSYAGSAMGWFRQAPGKEREFVSAISSDPDTKAYYADSVKGRFTISRDNSKNTVYLQMNSLRAEDTATYYCAISGQYPYARYWGHGTQVTVSS
As to B6, the “inhibition” value in test [1] was -31%.

B7: G9N1 (VHH)
VHH: EVQLQASGGGFVQPGGSLRLSCAASGDTSGEYSMGWFRQAPGKEREFVSAISDQGGIEIYYADSVKGRFTISRDNSKNTVYLQMNSLRAEDTATYYCAHTFYDMPDGYRQYWGQGTQVTVSS
notes: Synthetic humanized sdAb; on M13 phage in the screening ELISA, purified with His and cMyc tags and immobilized in wells otherwise; also called GAL-9-specific sdAb G9N1; not shown: 6xHis and cMyc tags from vector pHEN2
In the case of B7, the binding result in test [4] and in test [5] was “binds” throughout.

B8: G13N2 (VHH)
VHH: EVQLQASGGGFVQPGGSLRLSCAASGSTSRSSGMGWFRQAPGKEREFVSAISYRGSGARYYADSVKGRFTISRDNSKNTVYLQMNSLRAEDTATYYCAMWQRQIQPGTRPVWKYWGQGTQVTVSS
notes: Synthetic humanized sdAb; on M13 phage in the screening ELISA, purified with His and cMyc tags otherwise; also called GAL-13 sdAb G13N2; not shown: 6xHis and cMyc tags from vector pHEN2
As to B8, the binding result in test [2] is on record as “binds”.

B9: G13N5 (VHH, not shown: small tags and cut ends)
VHH: EVQLQASGGGFVQPGGSLRLSCAASGYTSNEDSMGWFRQAPGKEREFVSAISRGPSFRTYYADSVKGRFTISRDNSKNTVYLQMNSLRAEDTATYYCAIRLGRLYRYGDLTPKSAYYWGQGTQVTVSS
As to B9, in test [1], the “inhibition” value is -44%.

B10: G13N6 (VHH, not shown: small tags and cut ends)
VHH: EVQLQASGGGFVQPGGSLRLSCAASGRTSSLTSMGWFRQAPGKEREFVSAISFSGSMFTYYADSVKGRFTISRDNSKNTVYLQMNSLRAEDTATYYCADKWMHKPANYWGQGTQVTVSS
Regarding B10, the “inhibition” value in test [1] is -27%.

B11: G9N4 (VHH)
VHH: EVQLQASGGGFVQPGGSLRLSCAASGGTWRWTIMGWFRQAPGKEREFVSAISRTNSEYQYYADSVKGRFTISRDNSKNTVYLQMNSLRAEDTATYYCAEPTAVWADKGQEMQSYWGQGTQVTVSS
notes: Synthetic humanized sdAb; on M13 phage in the screening ELISA, purified with His and cMyc tags and immobilized in wells otherwise; also called GAL-9-specific sdAb G9N4; not shown: 6xHis and cMyc tags from vector pHEN2
As for B11, the binding result in test [3] and in test [4] was “binds” each time.

B12: G13N10 (VHH)
VHH: EVQLQASGGGFVQPGGSLRLSCAASGRTSNQTIGWFRQAPGKEREFVSAISARFDEYGYYADSVKGRFTISRDNSKNTVYLQMNSLRAEDTATYYCALGWPQKSTWRAYTAEYWGQGTQVTVSS
notes: Synthetic humanized sdAb; on M13 phage in the screening ELISA, purified with His and cMyc tags otherwise; also called Nb #10; GAL-13 sdAb G13N10; not shown: 6xHis and cMyc tags from vector pHEN2
With B12, the binding result in test [2] is recorded as “binds”.
